No end group written: not given here.
T1: human MR LBD (residues 727-984) containing a C808S mutation, 6xHis-GST fusion protein (human, UniProt P08235 727-984)
T1 construct: also called purified MR LBD; MR LBD (C808S); not shown: glutathione S-transferase (GST) tag; thrombin protease site between GST and the MR LBD
T1 sequence: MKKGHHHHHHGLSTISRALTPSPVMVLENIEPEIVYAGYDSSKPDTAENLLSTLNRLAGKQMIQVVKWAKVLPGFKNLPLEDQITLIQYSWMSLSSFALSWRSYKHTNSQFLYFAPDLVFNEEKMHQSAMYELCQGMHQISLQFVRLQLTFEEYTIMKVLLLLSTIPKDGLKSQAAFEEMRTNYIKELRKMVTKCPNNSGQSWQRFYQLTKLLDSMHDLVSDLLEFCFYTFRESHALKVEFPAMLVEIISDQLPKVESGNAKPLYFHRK

T2: MR LBD (C808S) with K785E first charge clamp mutation, 6xHis-GST fusion protein (human, UniProt P08235 727-984)
T2 construct: not shown: glutathione S-transferase (GST) tag; thrombin protease site between GST and the MR LBD
T2 sequence: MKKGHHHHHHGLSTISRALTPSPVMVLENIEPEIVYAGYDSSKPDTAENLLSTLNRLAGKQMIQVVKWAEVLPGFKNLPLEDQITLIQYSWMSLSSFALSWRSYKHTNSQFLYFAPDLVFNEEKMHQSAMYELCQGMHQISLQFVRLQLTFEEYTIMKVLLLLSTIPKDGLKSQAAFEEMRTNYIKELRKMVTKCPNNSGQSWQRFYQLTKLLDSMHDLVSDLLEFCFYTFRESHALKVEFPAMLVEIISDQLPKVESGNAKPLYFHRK

T3: MR LBD (C808S) with E962R first charge clamp (AF-2 helix) mutation, 6xHis-GST fusion protein (human, UniProt P08235 727-984)
T3 construct: not shown: glutathione S-transferase (GST) tag; thrombin protease site between GST and the MR LBD
T3 sequence: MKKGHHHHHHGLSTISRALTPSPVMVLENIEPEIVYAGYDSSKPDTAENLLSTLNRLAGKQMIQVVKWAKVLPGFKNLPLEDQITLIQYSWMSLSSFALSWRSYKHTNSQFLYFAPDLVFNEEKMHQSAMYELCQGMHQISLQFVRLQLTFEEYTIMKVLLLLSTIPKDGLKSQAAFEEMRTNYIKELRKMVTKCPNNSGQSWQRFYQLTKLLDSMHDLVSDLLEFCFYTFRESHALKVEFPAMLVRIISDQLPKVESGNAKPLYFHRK


Legend:
[1] = target: T1, human MR LBD (residues 727-984) …; assay: AlphaScreen quantitative competition with unlabeled peptide, MR LBD/corticosterone
Procedure: (§1) The binding of various peptide motifs to MR was determined by AlphaScreen assays using a hexahistidine detection kit from Perkin-Elmer. MR proteins were prepared as 6×His-GST fusion proteins for the assays.

[2] = target: T1, human MR LBD (residues 727-984) …; assay: AlphaScreen, biotinylated peptide and 6xHis-GST MR LBD/corticosterone
Procedure: as §1

[3] = target: T2, MR LBD (C808S) with K785E first charge …; assay: AlphaScreen, 100 nM corticosterone
[4] = target: T1, human MR LBD (residues 727-984) …; assay: AlphaScreen competition (IC50 per FIG. 3F legend), MR LBD/corticosterone
Procedure: as §1

[5] = target: T3, MR LBD (C808S) with E962R first charge …; assay: AlphaScreen, 100 nM corticosterone

IC50 [1]	binding result [3]	Binder	also measured
21.4 µM		SQTSHKLVQLLTTTA (also called 1st motif of SRC1) [unlabeled SRC1-1 peptide]	
		QAVQEHASASTNMGLEAIIRKALMGKY (also: biotinylated, site not given here, also called SMRT corepressor motif) [biotinylated SMRT-2 peptide]	binding result [2]: no binding
0.9 µM		AQQKSLLQQLLTE (treated as one molecule; also called SRC1-4 LXXLL motif) [unlabeled SRC1-4 peptide AQQKSLLQQLLTE]	
		GHSFADPASNLGLEDIIRKALMGSF (also: biotinylated, site not given here, also called N-COR corepressor motif) [biotinylated NCOR-2 peptide]	binding result [2]: no binding
16.8 µM		SKGHKKLLQLLTCSS (also called 1st motif of SRC3) [unlabeled SRC3-1 peptide]	
	no binding	QKPTSGPQTPQAQQKSLLQQLLTE (also: biotinylated, site not given here) [biotinylated SRC1-4 peptide]	
		SRC2-(2+3), human SRC2 fragment (residues 563-763) containing the 2nd and 3rd LXXLL motifs, 6xHis-GST fusion protein (other, UniProt Q15596 563-763, looked up, No removal of the 6xHis-GST tag is described; also called purified SRC2 fragment; not shown: 6xHis tag; glutathione S-transferase (GST) tag) QNSPVNMNPPPLSKMGSLDSKDCFGLYGEPSEGTTGQAESSCHPGEQKETNDPNLPPAVSSERADGQSRLHDSKGQTKLLQLLTTKSDQMEPSPLASSLSDTNKDSTGSLPGSGSTHGTSLKEKHKILHRLLQDSSSPVDLAKLTAEATGKDLSQESSSTAPGSEVTIKQEPVSPKKKENALLRYLLDKDDTKDIGLPEIT	IC50 [4]: 0.04 µM
		SRC2-(M2+3), SRC2 fragment (2+3) with the 2nd LXXLL motif mutated to LXXAA (other, UniProt Q15596 563-763, looked up, not shown: 6xHis tag; glutathione S-transferase (GST) tag) QNSPVNMNPPPLSKMGSLDSKDCFGLYGEPSEGTTGQAESSCHPGEQKETNDPNLPPAVSSERADGQSRLHDSKGQTKLLQLLTTKSDQMEPSPLASSLSDTNKDSTGSLPGSGSTHGTSLKEKHKILHRAAQDSSSPVDLAKLTAEATGKDLSQESSSTAPGSEVTIKQEPVSPKKKENALLRYLLDKDDTKDIGLPEIT	fold decrease of binding affinity against SRC2-(2+3) [4]: > 10 fold
	no binding	SPSSHSSLTERHKILHRLLQEGSP (also: biotinylated, site not given here) [biotinylated SRC1-2 peptide]	binding result [5]: no binding
	no binding	QEPVSPKKKENALLRYLLDKDDTKD (also: biotinylated, site not given here, also called third LXXLL motif of SRC2; TIF2/GRIP1 third motif) [biotinylated SRC2-3 (TIF2) peptide]	
